The source of these data is patent WO2015031626A1 (dated 2015).

In assay [1] the target is T1, free cMet (SEQ ID NO: 33) bound to Alexa-488 dye (human, UniProt P08581 25-932, Alexa-488 dye (site not stated)).
T1 construct: also called cMet-A488
Nature of the assay: FRET binding titration in solution.

Assay [2] addresses T2, recombinant human scMet antigen, cMet (25-932)-HIEGRMD-6His (human, UniProt P08581 25-932).
T2 construct: this entry is used for those rows too; also called soluble cMet; scMet B Sample
In words: … chemiluminescent microparticle sandwich immunoassay on recombinant scMet.

For assay [3], the target named is T2, recombinant human scMet antigen, cMet …. Nature of the assay: … scMet B sandwich immunoassay, 224D10 F(ab')2 as acridinium conjugate.

T2 sequence (P08581 other isoform, or with tags, fused parts or gaps limits assumed): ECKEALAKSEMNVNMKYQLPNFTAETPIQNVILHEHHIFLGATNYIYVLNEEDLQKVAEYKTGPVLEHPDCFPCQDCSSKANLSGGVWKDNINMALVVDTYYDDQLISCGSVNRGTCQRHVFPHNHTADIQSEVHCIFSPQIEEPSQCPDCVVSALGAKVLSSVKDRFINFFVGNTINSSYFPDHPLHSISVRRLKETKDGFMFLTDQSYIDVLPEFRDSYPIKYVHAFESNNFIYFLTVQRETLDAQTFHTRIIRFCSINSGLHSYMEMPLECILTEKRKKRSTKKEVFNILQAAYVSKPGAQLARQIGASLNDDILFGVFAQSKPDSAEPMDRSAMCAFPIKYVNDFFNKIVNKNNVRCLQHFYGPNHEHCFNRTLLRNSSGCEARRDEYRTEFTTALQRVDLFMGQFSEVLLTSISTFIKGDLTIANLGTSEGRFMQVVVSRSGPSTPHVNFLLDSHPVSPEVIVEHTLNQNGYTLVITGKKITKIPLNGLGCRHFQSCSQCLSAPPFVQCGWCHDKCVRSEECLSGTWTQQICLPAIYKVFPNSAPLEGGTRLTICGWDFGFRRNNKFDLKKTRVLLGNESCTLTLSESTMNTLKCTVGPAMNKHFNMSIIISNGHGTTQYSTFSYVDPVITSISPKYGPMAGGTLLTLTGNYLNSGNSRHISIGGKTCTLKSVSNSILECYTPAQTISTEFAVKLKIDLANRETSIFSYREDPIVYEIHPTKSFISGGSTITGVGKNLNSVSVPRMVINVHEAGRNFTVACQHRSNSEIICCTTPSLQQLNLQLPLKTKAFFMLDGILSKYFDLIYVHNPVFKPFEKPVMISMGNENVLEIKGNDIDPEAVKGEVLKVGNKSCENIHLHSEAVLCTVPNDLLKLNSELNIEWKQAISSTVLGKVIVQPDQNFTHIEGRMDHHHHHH
T1 sequence (P08581 other isoform, or with tags, fused parts or gaps limits assumed): as above

B1: anti-cMet 11E1 monoclonal antibody (hybridoma CNCM I-3724) (antibody, V domains shown)
VH: QVQLQQSGAELAKPGASVKMSCKASGYTFTSYWMNWVKQRPGQGLEWIGYINPTTGSTDYNQKLKDKATLTADKSSNTAYMQLSSLTSEDSAVYYCAIGGYGSWFAYWGQGTLVTVSA
VL: QIVLTQSPAIMSASPGEKVTLTCSASSSVSSTYLYWYQQKPGSSPKLWIYTTSILASGVPARFSGSGSGTSYSLTISSMETEDAASYFCHQWSSYPFTFGSGTKLDIK
notes: summary and claims call them variable heavy and variable light domains; Hybridoma monoclonal, coated on magnetic microparticles (capture) or labelled with acridinium (conjugate); also called m11E1; mAb 11E1
With B1, the binding result in assay [1] and in assay [2] was “binds” throughout.

B2: anti-cMet 224D10 F(ab')2 fragment antibody (antibody, V domains shown)
VH: DLQLQESGPGLVKPSQSLSLTCSVTGYSITSAYFWSWIRQFPGNKLEWMGFINYDGTNNYNPSLKNRISITRDTSKNQFFLRLNSVTTDDTATYYCTRDRTFAYWGQGTLVTVSA
VL: DIVLTQSPATLSVTPGDRVSLSCRASQRIYNYLHWYQQKSHESPRLLIKYASQSISGIPSRFSGSGSGTDFILTINSVETEDFGMYFCQQSNSWPLTFGAGTKLELRR
modifications: acridinium conjugate (site not stated)
notes: also called 224D10 F(ab') 2 fragment conjugate
For B2, in assay [3], the binding result was “binds”.
